Changes are numbered by the printed parent chain.

B1: mDia2 FH1 domain fragment, in vitro transcribed and translated, 35S-labelled (other, UniProt Q9Z207 540-610, looked up)
chain: PLQPSVEGEAGPSALPPAPPALSGGVPPPPPPPPPPPPPLPGMPMPFGGPVPPPPPLGFLGGQSSIPLNLP
modifications: 35S-methionine label
notes: domain: FH1
B2: GST-EB1-C (other, mouse, UniProt Q61166 165-268, looked up)
chain: ATQRTTAAPKAGPGMVRKNPGVGNGDDEAAELMQQVKVLKLTVEDLEKERDFYFGKLRNIELICQENEGENDPVLQRIVDILYATDEGFVIPDEGGPQEEQEEY
notes: range 165-268; also called glutathione S-transferase fused to EB1-C; not shown: glutathione S-transferase (GST) tag, N-terminal, vector pGEX-2T
B3: EB1-C-KR-GFP (other, mouse, UniProt Q61166 165-268, looked up)
chain: B2 chain with K56A, R58A
notes: range 165-268; not shown: GFP tag (vector pGFP-NKB)
B4: EB1-C-EEKR-GFP (other, mouse, UniProt Q61166 165-268, looked up)
chain: B2 chain with E47A, E49A, K56A, R58A
notes: as for B3
B5: GST-APC-C1 (amino acids 2674-2843) (other, UniProt P25054 2674-2843, looked up)
chain: SPTGNTPPVIDSVSEKANPNIKDSKDNQAKQNVGNGSVPMRTVGLENRLNSFIQVDAPDQKGTEIKPGQNNPVPVSETNESSIVERTPFSSSSSSKHSSPSGTVAARVTPFNYNPSPRKSSADSTSARPSQIPTPVNNNTKKRDSKTDSTESSGTQSPKRHSGSYLVTSV
notes: range 2674-2843; Gift from R. Baer; not shown: glutathione S-transferase (GST) tag
B6: GST-EB1 (other, mouse, UniProt Q61166 1-268, looked up)
chain: MAVNVYSTSVTSDNLSRHDMLAWINESLQLNLTKIEQLCSGAAYCQFMDMLFPGSIALKKVKFQAKLEHEYIQNFKILQAGFKRMGVDKIIPVDKLVKGKFQDNFEFVQWFKKFFDANYDGKEYDPVAARQGQETAVAPSLVAPALSKPKKPLGSSTAAPQRPIATQRTTAAPKAGPGMVRKNPGVGNGDDEAAELMQQVKVLKLTVEDLEKERDFYFGKLRNIELICQENEGENDPVLQRIVDILYATDEGFVIPDEGGPQEEQEEY
notes: not shown: glutathione S-transferase (GST) tag, N-terminal, vector pGEX-2T

The target of test [1] is T1, GST-APC-C (amino acids 2167-2843) (UniProt P25054 2167-2843).
T1 construct: range 2167-2843; Gift from R. Baer; not shown: glutathione S-transferase (GST) tag
Briefly: GST pull-down of 35S-labelled in vitro translated protein, autoradiography. The source says: (§1) EB1 and APC interact with mDia. (a) Binding of in vitro transcribed and translated ³⁵S-labelled ΔGBD-mDia2 to the indicated GST-tagged constructs of EB1 and APC (bottom). Arrows indicate full-length GST-APC-C or GST-APC-basic proteins. Additional bands detected in the GST-APC-C and GST-APC-basic lanes are presumed to be breakdown products. (b) Binding of in vitro transcribed and translated ³⁵S-labelled mDia2 fragments to GST-EB1, GST and GST-APC-C. (c) Binding of Flag-mDia1 expressed in COS-7 cells to GST-EB1 and GST-APC-C in the presence of DMSO, nocodazole (NZ) and latrunculin A (Lat A). Bound proteins were detected by western blotting with antibodies to Flag-mDia1, tubulin and actin. […] Bound His-mDia was detected by western blotting with an anti-His antibody. (e) Endogenous mDia1 and EB1 co-immunoprecipitate with APC. Mouse brain extracts and COS-7 cell lysates were immunoprecipitated with APC antibodies and precipitates analyzed for APC, mDia1 and EB1 by western blotting with the indicated antibodies. IgG, non-immune immunoglobulin G used for control immunoprecipitation. (f) Schematic representation of the interactions between mDia, EB1 and APC. EB1 and APC bind to mDia through different domains than they use to bind to each other. Note that although EB1 and APC bind to the FH1-FH2 region of mDia, the individual binding sites within this domain have not been mapped. The molecules are not drawn to scale.
(§2) mDia2 transcripts labeled with ³⁵S-methionine (Amersham Biosciences) were generated with Quick-Coupled Transcription/Translation Systems (Promega). Equal molar amounts of GST, GST-EB1 or GST-APC on beads were incubated with labeled transcripts for 2 h at 4° C. in PBS containing 1% Triton X-100 and protease inhibitors. After washing, bound proteins were eluted with SDS sample buffer and analyzed by SDS-PAGE. Gels were incubated for 15-30 min in Amplify (Amersham Biosciences), dried and autoradiographed for 1-24 h. Flag-mDia1 (40) was transfected into COS-7 cells, lysates prepared and treated with 0.5 μM latrunculin A, 10 μM nocodazole or DMSO for 1 h on ice.

For the test “GST-EB1”, the target named is B6. The test is described as above.
Description: as §1, §2

The target in test [2] is T2, His-521-1040-mDia2 (purified recombinant protein) (UniProt Q9Z207 521-1040).
T2 construct: also called His-mDia; not shown: His tag of vector pQE-30 (detected with RGS-His antibody)
Briefly: direct binding of purified recombinant proteins, GST pull-down, anti-His western blot. The source says: Bound proteins were detected by western blotting with antibodies to Flag-mDia1, tubulin and actin. […] Bound His-mDia was detected by western blotting with an anti-His antibody. (e) Endogenous mDia1 and EB1 co-immunoprecipitate with APC. Mouse brain extracts and COS-7 cell lysates were immunoprecipitated with APC antibodies and precipitates analyzed for APC, mDia1 and EB1 by western blotting with the indicated antibodies. IgG, non-immune immunoglobulin G used for control immunoprecipitation. (f) Schematic representation of the interactions between mDia, EB1 and APC. EB1 and APC bind to mDia through different domains than they use to bind to each other. Note that although EB1 and APC bind to the FH1-FH2 region of mDia, the individual binding sites within this domain have not been mapped. The molecules are not drawn to scale.
mDia2 transcripts labeled with ³⁵S-methionine (Amersham Biosciences) were generated with Quick-Coupled Transcription/Translation Systems (Promega). […] After washing, bound proteins were eluted with SDS sample buffer and analyzed by SDS-PAGE. […] The treated lysates were incubated with GST-tagged constructs as described above and analyzed by western blotting with mouse anti-Flag-M2 antibody (1:10,000; Sigma), rabbit anti-tubulin10 (W2; 1:50,000) and mouse anti-actin (C4D6; 1:50,000). […] Bound proteins were analyzed by western blotting with mouse RGS-His antibody (1:10,000).
In general terms: Immunoblotting shows a protein as a band on a membrane.

In test [3] the target is B5. Briefly: GST pull-down from COS-7 lysates, anti-GFP western blot. The source says:
Residues of EB1 that were mutated to the indicated residues (below) are shaded in grey. (b) Diagram of GST-APC constructs used in this study. APC has a microtubule-binding site (labeled ‘Basic’) and a separate EB1-binding site in its C-terminus. (c) Pull-down analysis of wild type (WT) EB1-C-GFP and mutant EB1-C-GFPs by GST-APC-C1 and GST-p150^Glued (1-330). Western blots were probed with anti-GFP antibody. (d) The ability of EB1-C-GFP wild type (WT) and mutants to inhibit LPA-stimulated Glu-MTs in serum-starved 3T3 cells. All EB1-C-GFP constructs were expressed at equivalent levels on the basis of GFP fluorescence. Error bars represent the standard error from at least three independent experiments. (e) EB1-GFP and EB1-C-GFP interact with endogenous APC in cells. COS-7 cells were transiently transfected and immunoprecipitated as indicated. Western blots of the immunoprecipitates were probed with EB1 antibody. […] Cells expressing APC (untagged) were detected with antibody to APC. […]
For binding of wild-type and mutant EB1-C-GFP to APC or p150^Glued, COS-7 cells were transfected with EB1-C-GFP constructs and lysed in PBS containing 1% Triton X-100 and protease inhibitors. […] Bound proteins were analyzed by western blotting with rabbit anti-GFP (1:10,000; BD Transduction Laboratory). […] Bound proteins were eluted with SDS sample buffer and analyzed by western blotting for EB1.

Another test concerns the target T3, ΔGBDΔDADG(YEKR)-mDia2 (UniProt Q9Z207 258-1030, limits assumed, 35S-methionine label (in the binding assay)).
T3 construct: a GFP-myc-tagged form was expressed in 3T3 cells for the Glu-MT assay; also called G(YEKR) mutation
Kind of test: GST pull-down of 35S-labelled in vitro translated protein, autoradiography.
Description: as §1, §2

Test [4] deals with T4, mDia2 FH2 domain fragment, in vitro transcribed and translated, 35S-labelled (UniProt Q9Z207 615-1013, limits assumed, 35S-methionine label).
T4 construct: domain: FH2
Described as above.
Description: as §1, §2

T2 sequence (Q9Z207 521-1040): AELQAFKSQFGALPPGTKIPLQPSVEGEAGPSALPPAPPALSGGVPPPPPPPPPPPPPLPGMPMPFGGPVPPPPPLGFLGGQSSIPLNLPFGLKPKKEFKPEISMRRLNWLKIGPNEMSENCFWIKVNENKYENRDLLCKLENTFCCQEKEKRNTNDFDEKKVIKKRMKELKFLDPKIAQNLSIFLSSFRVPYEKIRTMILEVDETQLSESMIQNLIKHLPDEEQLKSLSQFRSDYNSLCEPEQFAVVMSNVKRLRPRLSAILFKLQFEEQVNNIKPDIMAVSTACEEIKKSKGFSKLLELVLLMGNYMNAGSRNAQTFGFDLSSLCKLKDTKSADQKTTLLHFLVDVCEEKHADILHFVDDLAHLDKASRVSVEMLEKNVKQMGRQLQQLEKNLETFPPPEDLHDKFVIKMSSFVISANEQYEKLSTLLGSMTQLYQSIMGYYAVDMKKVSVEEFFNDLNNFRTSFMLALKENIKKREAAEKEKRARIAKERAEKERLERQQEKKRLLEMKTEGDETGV
T4 sequence (Q9Z207 615-1013 limits assumed): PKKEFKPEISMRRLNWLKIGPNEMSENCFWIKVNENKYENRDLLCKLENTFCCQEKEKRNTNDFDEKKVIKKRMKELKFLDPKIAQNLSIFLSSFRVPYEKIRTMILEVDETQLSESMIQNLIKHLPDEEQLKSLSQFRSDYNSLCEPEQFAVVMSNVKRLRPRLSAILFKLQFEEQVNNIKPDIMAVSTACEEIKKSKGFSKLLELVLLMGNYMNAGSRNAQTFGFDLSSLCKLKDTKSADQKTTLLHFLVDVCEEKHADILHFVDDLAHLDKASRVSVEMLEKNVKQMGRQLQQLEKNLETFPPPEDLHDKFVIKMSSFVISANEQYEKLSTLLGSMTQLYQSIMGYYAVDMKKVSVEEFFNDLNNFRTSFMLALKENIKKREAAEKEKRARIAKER
T3 sequence (Q9Z207 other isoform, or with tags, fused parts or gaps mutant limits assumed): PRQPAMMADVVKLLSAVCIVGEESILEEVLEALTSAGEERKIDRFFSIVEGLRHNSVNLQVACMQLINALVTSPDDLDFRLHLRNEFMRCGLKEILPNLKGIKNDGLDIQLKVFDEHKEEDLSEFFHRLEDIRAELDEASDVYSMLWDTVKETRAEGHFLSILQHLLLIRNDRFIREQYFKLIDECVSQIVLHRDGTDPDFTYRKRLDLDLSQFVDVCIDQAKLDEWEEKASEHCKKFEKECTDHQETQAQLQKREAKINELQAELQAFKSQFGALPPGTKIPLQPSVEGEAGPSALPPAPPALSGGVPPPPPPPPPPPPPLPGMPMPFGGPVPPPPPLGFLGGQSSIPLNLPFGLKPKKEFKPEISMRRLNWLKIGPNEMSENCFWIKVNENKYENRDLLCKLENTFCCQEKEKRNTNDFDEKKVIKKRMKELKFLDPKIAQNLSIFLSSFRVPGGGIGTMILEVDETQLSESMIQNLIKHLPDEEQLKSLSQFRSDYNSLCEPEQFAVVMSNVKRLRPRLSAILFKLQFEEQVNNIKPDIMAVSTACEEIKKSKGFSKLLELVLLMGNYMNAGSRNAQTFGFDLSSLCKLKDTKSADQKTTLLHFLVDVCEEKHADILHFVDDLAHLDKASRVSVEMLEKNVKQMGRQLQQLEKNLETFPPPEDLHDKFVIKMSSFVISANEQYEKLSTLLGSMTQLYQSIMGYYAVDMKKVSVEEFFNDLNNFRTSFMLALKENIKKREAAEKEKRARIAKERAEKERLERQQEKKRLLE

As to B1, the binding result (in test [1]; in the test with GST-EB1) was “no binding” each time.
Regarding B2, in test [2], the binding result was “no binding (tested: 0.3 µM)”.
On to B3, for which the binding result in test [3] was “no binding”.
On the same count and under the same terms, the result for B4 reads “no binding”.
In the case of B5, the binding result in test [2] is listed as “no binding (tested: 0.3 µM)”.
Regarding B6, the binding result (with ΔGBDΔDADG(YEKR)-mDia2; in test [4]) was “no binding” throughout.

For the origin of these results see patent US20070148663A1 (TRUSTEES OF COLUMBIA UNIVERSITY IN THE CITY OF NEW YORK, published 2007).
